Test: soluble on expression in E. coli; label from the status in PepcDB or PDB records

Row | Sequence | soluble on expression in E. coli
1 | MNKTSKAYQPLLSSKAKIAIIGGGVAGSTIALRFAELGLDTTLIEKGPSLVNGPPICHLHAGGNLYREICDEQCLTLLKQSIDTVKVYPQSVNIRPTVIALPKTDNGQPEDLLPRLEKLRAKYSELVAQDSRNKVLGEPENYFKFYSRTELDALLDLPLPKTAKNDSDWLVAFAQHVDLDSLKFPVLLVQEYGLSAFRFAAIASLAIEGLPSCHLQTNKQVIAIVQQKNSLGWQVSTQALPQHQQSPTIIHQHFDYVINACGFKSGEIDDMVSAKRKRMVEFKAAYVAHWPQCQGLWPEIVFYGERGTPQGMAQLTPYPDGYFQLHGMTQDITLFDQGLVASSLESAQPQLAKRFIEKIDKKWPEQLVHNRTLGSIEHIAQFISAFSSAEVAAKPLFGAQQIPGEDADLRAADVSFYGQHYARAEIVKASSALAAGDAILKNLVDCGLIAALELGRYLTEHYFPVSQQCSEIEVTERAIMLAKQREYPIALAKNLLEHHHHHH | soluble
2 | MNKYFYDGTPEGLVSAIGAILESGDDPEQTVLSIRQDTLFEEGLFLRTDSAVAEALFQRLRERAPDAVQTLWYFTMTEVDGLATSLLRYIALAFEHGDQVNGYLTHPDVKAVVATARKVGRELHRMKGLLRFEQLRDGTWLARMEPDHNVIQPLARHFSRRLRTQEWFIYDARRHSAAHWDGHALSFGTLERFSRPELSPEERVMQQLWQTFFKTIAIPERKNPRLQQSNMPAKYWKYLTEKQGE | not soluble
3 | MNLKDLLAHRENLMDSAKRARSAITDDMDPADAAQAVENVKSIISEIESTDEAIAARRGVSDVTQKLKGLTITERGTENDSAASRSLGEHFVKAAGDRLKNQAAGAHIEYSVPEYQVKEDAHSSPKDLVEGWGTFYQR | soluble
4 | MNLKPHCLALALACAGLAGPLPALAATPAAAQSAPVTVLASLPVTHALAERLLRDTEVKLQRVAPANLPASRQASFFAGRGAGGLAKAAGQADAVIDLRSIWSDDPLYPLARRSNIRIVEIDAARPVDGALPGIALRPGSDLHAYPWLNPTNLGRMADVLASDLERLAPGAAATIQANLATLKKQLLEATASNETRLAKADNLSVISLSERLGYLLAGLNLDPLDVEIQADDGWTETNIQAFAEELKSEDIALVLHHRQPPKPLADAIAASGARLIVVDTEAADPVAGLESDMKAIVEGLLAGKG | not soluble
5 | MNLLQRALVFTGGHISRYQAVIAVNSVGKNARFYSTTDDNMAAPEESVVAKDEMKRFMVECMTKVGATESHATQLALVLLEGDIRGHYSHGLNRLDMYVRDIEQNVCKGDGEPIILKEKAGTAWVDGNNLLGPVVGNFCMDLAIEKAKNAGIGWVVAKGSNHYGIAGWYALRAMKKGMLGMSMTNTSPISFPTRSAVPALGTNPISLAAPGTGDDSFVLDMASTTVAIGKVELAARKENPVPLSWGVGEGGKETTDPTKVLYGGGLLPLGGVEVSGGYKGYGLSSMIEIFCGILAGAHWGPHVRKWMSTKSEADLGQCFVAIDPEAFAPGFADRLQDFMQTMRALPTSSPSFKVEVAGDMERRHEALVEQLGGIPYHKNQITFVNDLAAKLGVKTVDLVQ | not soluble
6 | MNLNPAHINEPVQKEFLSVIKEYERVIYKVCYLYTTRNATLGDLYQEVILNLWKAYPKFRKECKISTWIYRIALNTCISFIRKEKNVPEIVALTREADWMTEEKDELTEMLRQLYRMINQLGQLDKSIVLLYLEEKSYEEIAEITGLTVTNVATKLSRIKDKLKKMKKEE | not soluble
7 | MNLTDYVKEVSRQDFGIEFQHTASWNSRLQTTGGRFFPEDGHLDFNPKFCKKGDAGTFRKIVRHELCHYHLYYAGKGYRHGDKDFKDLLLQVNGVRYAPSIQSNTFYHYYQCESCGQVYQRKRRMNTKKYACGNCHGKLRHQNQSLEHHHHHH | not soluble
8 | MNLVTDQDLLDVVNFFNRPLHALIAEVSKTTSDLELVRSTTQGIENICLLLDLVGTECIKDASAAKTSVLEHHHHHH | not soluble
9 | MNMYRVIEMYGDFEPWWFLEGWEEDIVASRKFDQYYDALKYYKTCWFRLEQESPLYKSRSDLMTIFWDPEDQRWCDECDEYLQQYHSLALLQDEQVIPDEKLRSGYEKQTSQERNRSCRMKLKLEHHHHHH | soluble
10 | MNNAKTAVTSRSVISLNSPIFLRQFYFEILNRLQVSSIIPKSKSEYVDAHMIRVSIEPQPTAFAYVFEYSTISTEPDNWNFAGASSKPEATFSILDPCRDYQFRVIIVIRSSNPAAVFDIIRPRPIPVQLPPFILTQPQISIEMPRVNNFNASGDLKLYVKWSLPYGYIDGDIYSYESPALYPIQCSTPEGEIPTPRIEIVKGGGRLAVWLPPSVLEARCRMWVEVRMLPRCVRLEPFNIQKNIEIDCSKNPSLDVCSKGR | not soluble
11 | MNNFVKLGLTTGVVLSAIIPYGGVHAATEDLKVETKEDTFRTGNLTAPSQKSAENVVKDALKGKTEQALSSKQVNTESKVNYNVTQSRKSYDGTTLVRLQQTYEGRDVYGYQLTAHINDDGVLTSISGDSAQDLQQQEDLKQPIILSEEDAKKQLFKIYGDNLTFVEEPEIKQVVYVDENTNKATNAYQITFSASTPEYVSGTVLIDAFVGDLLKELVQKLGIQVDSSIVQSATANKSQDPSKLTGTGKDDLGMNRTFGITQRSDGTYTLADYSRGKGIETYTANYKDYNNYRRNVWGYLDDLVTSNSTNFTDPKAVSAHYLATKVYDFYKEKYSRNSFDNNGQKVISVVHGWNTNGKNIGNPKQWFNAFSNGAMLVYGDPIVRAFDVAGHEFTHAVTRNESGLEYAGEAGAINEALSDILGVAVEKYANNGKFNWTMGEQSGRIFRDMKNPSSISSRYPEDYRHYNNLPIDADHDYGGVHTNSSIINKVAYLIASGGNHNGVNVQGIGEDKMFDIFYYANTDELNMTSDFKELKEACIRVAMNLYGKDSLEVQAVQQAFKAAYI | not soluble
12 | MNNLYRDLAPVTEAAWAEIELEAARTFKRHIAGRRVVDVSDPGGPVTAAVSTGRLIDVKAPTNGVIAHLRASKPLVRLRVPFTLSRNEIDDVERGSKDSDWEPVKEAAKKLAFVEDRTIFEGYSAASIEGIRSASSNPALTLPEDPREIPDVISQALSELRLAGVDGPYSVLLSADVYTKVSETSDHGYPIREHLNRLVDGDIIWAPAIDGAFVLTTRGGDFDLQLGTDVAIGYASHDTDTVRLYLQETLTFLCYTAEASVALSH | not soluble
13 | MNNSINHKFHHISRAEYQELLAVSRGDAVADYIIDNVSILDLINGGEISGPIVIKGRYIAGVGAEYTDAPALQRIDAHGATAVPGFIDAHLHIESSMMTPVTFETATLPRGLTTVICDPHEIVNVMGEAGFAWFARCAEQARQNQYLQVSSCVPALEGCDVNGASFTLEQMLAWRDHPQVTGLAEMMDYPGVISGQNALLDKLDAFRHLTLDGHCPGLGGKELNAYIAAGIENCHESYQLEEGRRKLQLGMSLMIREGSAARNLNALAPLINEFNSPQCMLCTDDRNPWEIAHEGHIDALIRRLIEQHNVPLHVAYRVASWSTARHFGLNHLGLLAPGKQADIVLLSDARKVTVQQVLVKGEPIDAQTLQAEESAKLAQSAPPYGNTIARQPVSASDFALQFTPGKRYRVIDVIHNELITHSHSSVYSENGFERNDVCFIAVLERYGQRLAPACGLLGGFGLNEGALAATVSHDSHNIVVIGRSAEEMALAVNQVIQDGGGLCVVRNGQVQSHLPLPIAGLMSTDTAQSLAEQIDALKAAARECGPLPDEPFIQMAFLSLPVIPALKLTSQGLFDGEKFAFTTLEVTE | not soluble
14 | MNNTEPWKKYVPETVSLYHVDYRENLNEREDLQEQCIRNNNMERLYETVMECYAEQEAESLLKILGEIKEKMAEEKRQEEFEEHREEITDLILSRSDTDPAEELIKNSAAVNMYYSPGEKIEERIGKASKTMSCYKVRRALKLKKGQFDTLIEELVDNATYGGELRIYFNAGFNELVTNDNGKDFRTIRFHRDVIVAVANSFNGSGYHISLPLDITFPFVRDRLFVDSQVRYSYATEVCGMCRDWCDSTSWETEYKTVRNTSRNRQKEKTLSTN | not soluble
